Assay [1] deals with FN-67B89 (recombinant human fibronectin EDB flanked by its surrounding type III domains, C-terminal hexahistidine tag) (human) (UniProt P02751). Briefly: SPR, biotinylated FN-67B89 on streptavidin sensor, 50-4000 nM, 1:1 Langmuir fit. In general terms: In SPR one partner is held on a chip, and binding of the other changes the refractive index at the surface.
For assay [2] the target is unchanged. Description: SPR single cycle kinetics, biotinylated FN-67B89 on streptavidin chip, 1.25-10 nM, 1:1 Langmuir fit.
Assay [3] shares this target. Description: SPR, biotinylated FN-67B89 on streptavidin sensor, 1.25-10 nM, 1:1 Langmuir fit.
Assay [4] has the same target. Description: SPR, biotinylated FN-67B89 on streptavidin sensor, 62.5-4000 nM, 1:1 Langmuir fit.
The target is the same in assay [5]. Briefly: ELISA titration of Trx-miniprotein on coated protein (1 µg/well), HRP anti-S-tag antibody, duplicates [continued), panel MCopt 1.0-3]. For orientation: ELISA stands for enzyme-linked immunosorbent assay.
Assay [6] deals with T1, FN-B (recombinant human fibronectin EDB as a single domain, C-terminal hexahistidine tag) (human, UniProt P02751 1266-1356, Biotinylated on primary amines only for the phage screening; coated unmodified in the ELISAs).
T1 construct: Made in E. coli (pET-21a); Residue numbers count on isoform 7 of P02751; Biotinylated on primary amines for the phage screening; also called Fibronectin Extra Domain B; single domain FN-B
T1 sequence (P02751 other isoform, or with tags, fused parts or gaps limits assumed): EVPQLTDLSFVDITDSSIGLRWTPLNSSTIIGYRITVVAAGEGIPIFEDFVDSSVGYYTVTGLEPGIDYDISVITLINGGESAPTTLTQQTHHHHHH
The assay is described as above. The procedure: (§1) FIG. 6: Saturation-binding curves of MCopt 1.0-2/-3 and MCopt 2.0-1/-2/-3 EDB binding. […] Binding of Trx-cystine-knot miniproteins was detected with an HRP-conjugated anti-s-tag-antibody. ELISAs were performed in duplicates (single values for FN-B(8-14)).
(§2) ELISA was used as technique to analyze protein-protein interactions. Cavities of 96-well microtiter plates (Nunc MaxiSorp™, Thermo Fisher Scientific) were coated with 1 μg FN-B, bovine serum albumin (BSA, Eurobio), milk powder, streptavidin (Sigma Aldrich), T7-His-TEV-B (LD BioPharma), FN-B(8-14) (R&D Systems), lysozyme, ovalbumin (GE Healthcare Life Science), aldolase (GE Healthcare Life Science) or 0.6 μg anti-c-myc-antibody (M4439, Sigma) overnight at 4° C. The wells were washed three times with PBS-T (1×PBS with 0.1% (w/v) Tween-20), blocked with 1× Casein buffer (Sigma Aldrich) diluted in PBS for 2 h at RT and washed again as described. […] After three times of washing with PBS-T, binding of the respective variant was detected with a horseradish peroxidase (HRP)-conjugated anti-S-tag antibody (ab18589 or ab19324, Abeam). Enzymatic reaction was measured with TMB as a chromogenic substrate and stopped with 0.2 M HCl after approximately 5 min. The measurement of absorbance at 450 nm was performed using an Infinite M200 PRO Microplate Reader (Tecan).

Assay [7] concerns the target T2, bovine serum albumin (bovine, UniProt P02769 25-607).
T2 construct: Control protein coated in ELISA; also called BSA
Briefly: ELISA, 200 nM Trx-miniprotein on coated protein (1 µg/well), duplicates. The procedure: FIG. 5: Extended specificity analysis of Trx-cystine-knot miniprotein clones MCopt 1.0-2/-3 and MCopt 2.0-1/-2/3. […] ELISA was performed in duplicates, error bars represent standard deviation and Trx-MC-Myc-010 served as negative cystine-knot miniprotein control.
as §2

In assay [8] the target is T3, FN-B(8-14) (R&D Systems), EDB with C-terminal domains 8-13 and 1/2 of domain 14 (UniProt P02751 1265-1908).
T3 construct: domain: EDB with C-terminal domains 8-13 and 1/2 of domain 14; Bought
T3 sequence (P02751 1265-1908 limits assumed): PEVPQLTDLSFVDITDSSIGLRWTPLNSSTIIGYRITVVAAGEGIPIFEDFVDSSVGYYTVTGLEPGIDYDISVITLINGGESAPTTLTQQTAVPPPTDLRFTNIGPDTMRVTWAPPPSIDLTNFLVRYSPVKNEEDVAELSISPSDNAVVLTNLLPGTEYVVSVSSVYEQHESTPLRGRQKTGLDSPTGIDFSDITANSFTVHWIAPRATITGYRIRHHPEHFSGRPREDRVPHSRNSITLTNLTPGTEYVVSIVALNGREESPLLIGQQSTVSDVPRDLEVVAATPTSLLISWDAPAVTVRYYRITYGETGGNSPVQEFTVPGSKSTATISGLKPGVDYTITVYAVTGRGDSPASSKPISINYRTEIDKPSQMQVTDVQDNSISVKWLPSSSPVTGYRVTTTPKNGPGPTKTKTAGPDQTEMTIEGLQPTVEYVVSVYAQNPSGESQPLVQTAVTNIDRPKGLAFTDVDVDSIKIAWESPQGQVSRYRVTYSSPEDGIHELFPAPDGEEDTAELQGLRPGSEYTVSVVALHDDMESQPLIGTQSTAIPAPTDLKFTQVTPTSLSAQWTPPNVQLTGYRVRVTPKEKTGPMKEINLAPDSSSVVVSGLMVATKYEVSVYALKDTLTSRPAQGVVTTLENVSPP
Description: ELISA titration of Trx-miniprotein on coated protein (1 µg/well), HRP anti-S-tag antibody, single values [continued), panel MCopt 1.0-3]. As to the method: as §1, §2

Assay [9] has as its target T1, FN-B (recombinant human fibronectin EDB …). Description: ELISA, Trx fusion 50 to 1.563 nM on coated FN-B, HRP anti-S-tag antibody; relative binding from apparent binding constants against parental MC-FN-010, three assays.
Assay [10] deals with T4, FN-6789 (recombinant human fibronectin type III domains 6-9 without EDB, C-terminal hexahistidine tag) (human, UniProt P02751-1 1085-1446, limits assumed).
T4 construct: domain: domains 6-9 without EDB; Control protein
T4 sequence (P02751 other isoform, or with tags, fused parts or gaps limits assumed): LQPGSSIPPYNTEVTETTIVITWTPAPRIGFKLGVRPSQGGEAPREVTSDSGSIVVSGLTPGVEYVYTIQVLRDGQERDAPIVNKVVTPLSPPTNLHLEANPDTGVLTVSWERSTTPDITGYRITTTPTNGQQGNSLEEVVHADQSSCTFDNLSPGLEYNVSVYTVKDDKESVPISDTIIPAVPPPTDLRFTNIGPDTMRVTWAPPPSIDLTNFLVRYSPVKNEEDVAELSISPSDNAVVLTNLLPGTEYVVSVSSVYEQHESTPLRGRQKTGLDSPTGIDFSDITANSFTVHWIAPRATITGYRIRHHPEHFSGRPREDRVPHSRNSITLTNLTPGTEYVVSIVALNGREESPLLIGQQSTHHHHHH
Description: ELISA, 1.56 to 50 nM Trx-miniprotein on 1 µg coated protein per well, 50 ng HRP anti-S-tag antibody, duplicates.

Residue numbers refer to the chain shown, from its start. Bridge positions count the residues as written; N and C are the ends. Ends that are not written are not given here.

T2 sequence (P02769 25-607 limits assumed): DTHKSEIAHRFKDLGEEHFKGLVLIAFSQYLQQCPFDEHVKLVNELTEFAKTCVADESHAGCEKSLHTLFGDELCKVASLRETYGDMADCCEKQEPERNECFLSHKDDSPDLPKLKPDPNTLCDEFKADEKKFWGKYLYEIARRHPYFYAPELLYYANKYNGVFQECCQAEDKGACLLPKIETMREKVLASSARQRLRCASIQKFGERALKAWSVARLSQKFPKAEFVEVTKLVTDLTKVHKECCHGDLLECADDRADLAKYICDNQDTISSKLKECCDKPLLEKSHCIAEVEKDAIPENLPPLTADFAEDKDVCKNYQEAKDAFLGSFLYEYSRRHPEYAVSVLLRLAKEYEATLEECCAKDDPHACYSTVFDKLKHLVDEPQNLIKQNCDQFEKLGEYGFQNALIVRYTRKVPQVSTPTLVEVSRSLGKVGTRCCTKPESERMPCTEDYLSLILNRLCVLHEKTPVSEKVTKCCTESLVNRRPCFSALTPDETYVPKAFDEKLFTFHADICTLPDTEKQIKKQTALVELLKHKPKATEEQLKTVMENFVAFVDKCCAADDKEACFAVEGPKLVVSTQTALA

B1: MC-FN-010 (tag-free cystine-knot miniprotein) (designed binder)
chain: PMCTQRKNRIRLCRRDSDCTGACICRGNGYCG
modifications: disulfide 13-25; disulfide (positions not given here); not fully specified (bridges)
A word on the Kd: it is the constant that tells how readily two partners part at equilibrium. For orientation: koff means the first-order rate constant of dissociation. What is called kon is the rate constant with which the complex forms. Take B1: in assay [1], the Kd was found to be 1580 nM, the koff worked out at 0.0783 s⁻¹ and the kon was determined as 49500 M⁻¹ s⁻¹.

B2: AF680-(MC-FN-016)3 (trimeric MC-FN-016 conjugated with Alexa Fluor 680) (designed binder)
peptide: B1 chain with K7A
modifications: ends and bridges not checked; also: trimer via oxime ligation, Alexa Fluor 680 label
With B2, in assay [2], the Kd is 0.902 nM, the koff is 0.00231 s⁻¹ and the kon turned out to be 2.56e+06 M⁻¹ s⁻¹.
Regarding PMCTQRANRIRLCRRDSDCTGACICRGNGYCG (designed binder, ends and bridges not checked; also: trimer, DOTA on trimer, site not given here) [DOTA-(MC-FN-016)3 (unlabeled trimeric probe)], in [3], the Kd amounted to 0.624 nM, the koff turned out to be 0.00226 s⁻¹ and the kon is 3.73e+06 M⁻¹ s⁻¹.

B3: MC-FN-016 (tag-free cystine-knot miniprotein) (designed binder)
chain: B1 chain with K7A
modifications: disulfide 13-25; disulfide (positions not given here); not fully specified (bridges)
B3: in assay [4], the Kd came to 1410 nM, the koff came out at 0.187 s⁻¹ and the kon came out at 133000 M⁻¹ s⁻¹.

B4: Trx-MC-FN-010 (thioredoxin fusion of cystine-knot miniprotein MC-FN-010) (designed binder)
chain: B1 chain
modifications: not fully specified; cysteine pairing not given here; also: fused to E. coli thioredoxin with His6-tag, S-tag and thrombin site
notes: also called Trx-MCopt 1.0-3; MCopt 1.0-3; not shown: E. coli thioredoxin-A, fusion partner from vector pET-32-LibEx; H6-tag, s-tag and thrombin cleavage site of pET-32-LibEx
As a reminder, the EC50 (read off the curve) is the concentration that produces a half-maximal response. As to B4, the EC50 (read off the curve) in assay [5] was 10 nM; in [6], approximately 4 nM; in assay [8], approximately 10 nM. The binding result in assay [7] is reported as “no binding (tested: 200 nM)”.

B5: AF680-(MC-FN-010)3 (trimeric MC-FN-010 conjugated with Alexa Fluor 680) (designed binder)
peptide: B1 chain
modifications: ends and bridges not checked; also: trimer via oxime ligation, Alexa Fluor 680 label
With B5, in assay [2], the Kd came out at 0.431 nM, the koff was 0.00347 s⁻¹ and the kon was 8.04e+06 M⁻¹ s⁻¹.

B6: Trx-MC-FN-019 (designed binder, not shown: large carriers; small tags and cut ends)
chain: B1 chain with I10A
modifications: disulfide 13-25, 19-31, 3-23; also: N-terminal thioredoxin fusion carrier (Trx, H6-tag, S-tag, thrombin site), no letters given
notes: alanine scan variant of MC-FN-010
Consider B6, for which the binding result in assay [9] is recorded as “no binding (tested: 50 nM)”.

B7: Trx-MC-FN-0111 (designed binder, not shown: large carriers; small tags and cut ends)
chain: B1 chain with L12A
modifications: disulfide 13-25, 19-31, 3-23; also: N-terminal thioredoxin fusion carrier (Trx, H6-tag, S-tag, thrombin site), no letters given
notes: as for B6
On to B7, for which the binding result in assay [9] is “no binding (tested: 50 nM)”.

B8: Trx-MC-FN-0114 (designed binder)
peptide: B1 chain with R26A
modifications: disulfide 13-25, 19-31, 3-23; also: N-terminal thioredoxin fusion carrier (Trx, H6-tag, S-tag, thrombin site), no letters given
notes: alanine scan variant of MC-FN-010; not shown: N-terminal carrier from vector pET-32-LibEx (E. coli thioredoxin-A, H6-tag, S-tag, thrombin site and their linkers)
For B8, the binding result in [9] is given as “no binding (tested: 50 nM)”.

B9: Trx-MC-FN-0110 (designed binder, not shown: large carriers; small tags and cut ends)
chain: B1 chain with R11A
modifications: disulfide 13-25, 19-31, 3-23; also: N-terminal thioredoxin fusion carrier (Trx, H6-tag, S-tag, thrombin site), no letters given
notes: as for B6
On to B9, for which, in [9], the binding result is reported as “no binding (tested: 50 nM)”.

B10: Trx-MC-FN-018 (designed binder, not shown: large carriers; small tags and cut ends)
chain: B1 chain with R9A
modifications: disulfide 13-25, 19-31, 3-23; also: N-terminal thioredoxin fusion carrier (Trx, H6-tag, S-tag, thrombin site), no letters given
notes: as for B6
As to B10, the binding result in assay [9] is reported as “no binding (tested: 50 nM)”.

B11: Trx-MC-FN-016 (thioredoxin fusion of cystine-knot miniprotein MC-FN-016) (designed binder)
chain: B1 chain with K7A
modifications: not fully specified (N-terminus, bridges); cysteine pairing not given here; also: N-terminal thioredoxin fusion carrier (Trx, H6-tag, S-tag, thrombin site), no letters given
notes: not shown: E. coli thioredoxin-A, fusion partner from vector pET-32-LibEx; H6-tag, s-tag and thrombin cleavage site of pET-32-LibEx
Consider B11, for which the binding result in assay [10] is “no binding (tested: 50 nM)”.

Values taken from patent US20210246191A1 (BIONTECH, published 2021).
